# Data published in patent publication US20240409663A1 (CONCEPT TO MEDICINE BIOTECH, published 2024).
# Substitutions are numbered along the chain they refer to.
# B1: Hu 52H5D3B8-2 (antibody, V domains shown)
# VH: EVQLVQSGAEVKKPGASVKVSCKASGYTFTDYEMHWVRQAPGQGLEWMGAIHPGSGGTAYNQKFKGRVTMTRDTSISTAYMELSRLRSDDTAVYYCARFYSYAYWGQGTLVTVSS
# VL: DVVMTQTPLSLSVTPGQPASISCRSSQSLVHSNGNTYLQWYLQKPGQSPQLLIYKVSNRFSGVPDRFSGSGSGTDFTLKISRVEAEDVGVYFCSQSIHVPYTFGGGTKVEIK
# notes: humanized 52H5D3B8; also called 52H5D3B8 VH0 + VL1
# B2: Hu 52H5D3B8-3 (antibody, V domains shown)
# VH: B1 VH with A97T
# VL: B1 VL with F92Y
# notes: humanized 52H5D3B8; also called 52H5D3B8 VH1 + VL0
# B3: Hu 52H5D3B8-6 (antibody, V domains shown)
# VH: B1 VH with R72A, A97T
# VL: B1 VL
# notes: humanized 52H5D3B8; also called 52H5D3B8 VH2 + VL1
# B4: Hu 52H5D3B8-5 (antibody, V domains shown)
# VH: B1 VH with R72A, A97T
# VL: B1 VL with F92Y
# notes: humanized 52H5D3B8; also called 52H5D3B8 VH2 + VL0
# B5: Hu 52H5D3B8-9 (antibody, V domains shown)
# VH: B1 VH with M48I, M70L, R72A, T74K, A97T
# VL: B1 VL with F92Y
# notes: humanized 52H5D3B8; also called 52H5D3B8 VH4 + VL0
# B6: Hu 52H5D3B8-1 (antibody, V domains shown)
# VH: B1 VH
# VL: B1 VL with F92Y
# notes: humanized 52H5D3B8; also called 52H5D3B8 VH0 + VL0
# B7: Hu 52H5D3B8-4 (antibody, V domains shown)
# VH: B1 VH with A97T
# VL: B1 VL
# notes: humanized 52H5D3B8; also called 52H5D3B8 VH1 + VL1
# B8: 52H5D3B8-6#-VH3+VL3 (antibody, V domains shown)
# VH: QVQLVQSGAEVKKPGASVKVSCKALGYTFTDYEMHWVKQAPGQGLEWIGAIHPGSGGTAYNQKFKGRVTLTADTSTSTVYMELSSLRSEDTAVYYCTRYYSYAYWGQGTLVTVSS
# VL: B1 VL with V2I, Q50K, F92Y, S94F, V109L
# notes: humanized
# B9: 52H5D3B8-6#-VH4+VL4 (antibody, V domains shown)
# VH: B8 VH with V68A, L70M, T74K, S75F
# VL: B1 VL with V2I, Q50K, S94F, V109L
# notes: humanized
# B10: 52H5D3B8-6#-VH4+VL3 (antibody, V domains shown)
# VH: B8 VH with V68A, L70M, T74K, S75F
# VL: B1 VL with V2I, Q50K, F92Y, S94F, V109L
# notes: humanized
# B11: 52H5D3B8-6#-VH3+VL4 (antibody, V domains shown)
# VH: B8 VH
# VL: B1 VL with V2I, Q50K, S94F, V109L
# notes: humanized
# B12: 52H5D3B8-6#-VH4+VL1 (antibody, V domains shown)
# VH: B8 VH with V68A, L70M, T74K, S75F
# VL: B1 VL with V2I, F92Y, S94F, V109L
# notes: humanized
# B13: 52H5D3B8-6#-VH4+VL2 (antibody, V domains shown)
# VH: B8 VH with V68A, L70M, T74K, S75F
# VL: B1 VL with V2I, S94F, V109L
# notes: humanized
# B14: 172B4E9 chimeric mAb (antibody, V domains shown)
# VH: QVQLQQSGAELVRPGASVTLSCKASGYTFTDYEIHWVKQTPVHGLEWIGAIDPATGDTAYTQKFKGKAILTADTSSNTVYMELRGLTSEDSAVHFCTRFYSYAYWGQGTLVTVSA
# VL: DVVMTQTPLSLPVSLGDQASISCRSSQSLVHTNGHTYLQWYLQKSGQSPRLLIFKVSNRFSGVPDRFSGSGSGTDFKLKISRVEAEDLGVYFCSQSTHVPYTFGGGTKLEIK
# B15: 152E9F7 chimeric mAb (antibody, V domains shown)
# VH: B14 VH with A54E, T74K, G85S, H94Y, F95Y
# VL: B14 VL with R50K, F54Y, K77T
# B16: 18C1D9 chimeric mAb (antibody, V domains shown)
# VH: QVQLQQSGAELVRPGASVTLSCKASGYTFSDYEMHWVKQTPVHGLEWIGAIDPETGGTAYNQKFKGKATLTADKSSSTAYMELRSLTSEDSAVYYCTRYYSYAYWGQGTLVTVSA
# VL: DVVMTQSPLSLPVSLGDQASISCRSRQSLVHSNGNTYLQWYLQKPGQSPKLLIYKVSNRFSGVPDRFSGSGSGTDFTLKISRVEAEDLGVYFCFQSIHVPYTFGGGTKLEKK
# B17: 171F9C5 chimeric mAb (antibody, V domains shown)
# VH: B16 VH with S30T, M34I, G56D, G57N, N61S, T69I
# VL: B14 VL with L29P, T32R, H35N, Q39H, S45P, R50K, K77T, E84A, S96T
# B18: 163E7D12 chimeric mAb (antibody, V domains shown)
# VH: B16 VH with S30T, D52G, G57S, K63R, T69I, L70V, Y102F
# VL: B16 VL with S7T, D17G, R26S, Y54F, K111I
# Molecular target: T1, human GPC3 on cells (human, UniProt P51654 25-554)
# T1 construct: whole, on cells; over-expressed on CHOK1 cells or endogenous on HEPG2, Hep3B and Huh-7 hepatocellular carcinoma cells; the cell line is named under assay; also called GPC3-CHOK1 cells; human GPC3 over-expressed CHOK1 cells
# Assay: FACS, Huh-7 cells
# Method: (§1) To evaluate the antigen binding property, the humanized antibodies were analyzed for their binding to human GPC3 over-expressed CHOK1 cells and Huh-7 cells by FACS. Briefly, GPC3-CHOK1 cells and Huh-7 cells were firstly incubated with Fc blocking reagent at 4° C. for 15 mins. Cells were washed by FACS buffer and divided to each well with 4-fold serially diluted humanized antibodies starting at 10 μg/mL at 4° C. for 60 mins. Cells were washed by FACS buffer and fixed with 2% PFA at RT for 15 mins. […] As different plates might affect the EC50 of 52H5D3B8-VH+VL, the 12 humanized antibodies were separated into two plates.
row,Binder,EC50
1,B1,0.0195 µg/mL
2,B2,0.0213 µg/mL
3,B3,0.0295 µg/mL
4,B4,0.0402 µg/mL
5,B5,0.0348 µg/mL
6,B6,0.0243 µg/mL
7,B7,0.0196 µg/mL

# Molecular target: T1, human GPC3 on cells
# Assay: FACS, GPC3-CHOK1 cells
# Method: as §1, with “CHOK1 cells, HEPG2 cells, Hep3B” for “CHOK1”, “GPC3-CHOK1 cells, HEPG2 cells, Hep3B” for “GPC3-CHOK1”, “The 16” for “As different plates might affect the EC50 of 52H5D3B8-VH+VL, the 12”
row,Binder,EC50
1,B8,0.0408 µg/mL
2,B9,0.0367 µg/mL
3,B10,0.0379 µg/mL
4,B11,0.0419 µg/mL
5,B12,0.0387 µg/mL
6,B13,0.0425 µg/mL

# Molecular target: T2, human GPC3-his tag protein (human, UniProt P51654 25-559, limits assumed)
# T2 construct: recombinant soluble antigen used as analyte in all Biacore runs; also called recombinant GPC3 protein; rhGPC3-His; not shown: His tag
# Assay: SPR Biacore 8K, mAb captured, affinity ranking
# Method: To evaluate antigen binding activity, the chimeric antibody's affinity was measured by Biacore 8K. Two concentrations with most close affinity to the chimeric antibody's affinity were chosen for the 12 humanized antibodies' affinity detection. Human GPC3-his tag protein was injected over captured antibody for 3 mins at a flow rate of 30 μl/min. The antigen was allowed to dissociate for 720 s.
Binder,Kd,koff,kon
B1,5.71 nM,0.00163 s⁻¹,285000 M⁻¹ s⁻¹
B2,4.34 nM,0.00176 s⁻¹,405000 M⁻¹ s⁻¹
B3,2.94 nM,0.000961 s⁻¹,327000 M⁻¹ s⁻¹
B4,2.87 nM,0.000916 s⁻¹,319000 M⁻¹ s⁻¹
B5,4.18 nM,0.00102 s⁻¹,244000 M⁻¹ s⁻¹
B6,6.33 nM,0.00161 s⁻¹,255000 M⁻¹ s⁻¹
B7,4.6 nM,0.00164 s⁻¹,357000 M⁻¹ s⁻¹

# Molecular target: T1, human GPC3 on cells
# Assay: FACS, Huh-7 cells
# Remark: another data set of the same source
# Method: as §1, with “CHOK1 cells, HEPG2 cells, Hep3B” for “CHOK1”, “GPC3-CHOK1 cells, HEPG2 cells, Hep3B” for “GPC3-CHOK1”, “The 16” for “As different plates might affect the EC50 of 52H5D3B8-VH+VL, the 12”
row,Binder,EC50
1,B8,0.0351 µg/mL
2,B9,0.0259 µg/mL
3,B10,0.0287 µg/mL
4,B11,0.0322 µg/mL
5,B12,0.0306 µg/mL
6,B13,0.0326 µg/mL

# Molecular target: T1, human GPC3 on cells
# Assay: FACS, HEPG2 cells
# Method: as §1, with “CHOK1 cells, HEPG2 cells, Hep3B” for “CHOK1”, “GPC3-CHOK1 cells, HEPG2 cells, Hep3B” for “GPC3-CHOK1”, “The 16” for “As different plates might affect the EC50 of 52H5D3B8-VH+VL, the 12”
row,Binder,EC50
1,B8,0.0426 µg/mL
2,B9,0.0367 µg/mL
3,B10,0.0391 µg/mL
4,B11,0.0422 µg/mL
5,B12,0.04 µg/mL
6,B13,0.0435 µg/mL

# Molecular target: T1, human GPC3 on cells
# Assay: FACS, GPC3-CHOK1 cells
# Remark: another data set of the same source
# Method: as §1
row,Binder,EC50
1,B1,0.0338 µg/mL
2,B2,0.0387 µg/mL
3,B3,0.0509 µg/mL
4,B4,0.0544 µg/mL
5,B5,0.0572 µg/mL
6,B6,0.0404 µg/mL
7,B7,0.0324 µg/mL

# Molecular target: T1, human GPC3 on cells
# Assay: FACS, GPC3-CHOK1 cells
# Remark: another data set of the same source
# Method: Cell-based binding: FACS was used to evaluate the binding activity of chimeric mAbs (18C1D9, 52H5D3B8, 163E7D12, 172B4E9, 152E9F7 and 171F9C5) with comparison to a known GPC3 antibody GC33 (Chugai Pharmaceutical) on human GPC3 over-expressed CHOK1 cells.
# Briefly, GPC3-CHOK1 cells were washed by FACS buffer and divided to each well with 3-fold serially diluted chimeric mAbs or GC33 mAb starting at 5 μg/mL at 4° C. for 40 mins. […] Samples were washed twice with FACS buffer.
row,Binder,EC50
1,B14,0.269 µg/mL
2,B15,0.14 µg/mL
3,B16,0.238 µg/mL
4,B17,0.142 µg/mL
5,B18,0.17 µg/mL

# Molecular target: T2, human GPC3-his tag protein
# Assay: SPR Biacore, mAb captured on CM5, GPC3-his dilution series (full kinetics)
# Method: The binding of the humanized antibodies to recombinant GPC3 protein (human GPC3-his tag) was tested by Biacore using a capture method. 52H5D3B8-6 #-V+VL, 52H5D3B8-6 #-VH1+VL1, 52H5D3B8-6 #-VH1+VL3, 52H5D3B8-6 #-V1+VL4, 52H5D3B8-6 #-VH2+VL4, 52H5D3B8-6 #-VH3+VL1, 52H5D3B8-6 #-VH3+VL3 mAbs were captured using CM5 sensor chip. A serial dilution of human GPC3-his tag protein was injected over captured antibody for 2 mins at a flow rate of […]. The antigen was allowed to dissociate for 360 s. All the experiments were carried out on a Biacore T200.
Binder,Kd,koff,kon
B8,0.898 nM,0.000538 s⁻¹,600000 M⁻¹ s⁻¹

# Molecular target: T1, human GPC3 on cells
# Assay: FACS, Hep3B cells
# Method: as §1, with “CHOK1 cells, HEPG2 cells, Hep3B” for “CHOK1”, “GPC3-CHOK1 cells, HEPG2 cells, Hep3B” for “GPC3-CHOK1”, “The 16” for “As different plates might affect the EC50 of 52H5D3B8-VH+VL, the 12”
row,Binder,EC50
1,B8,0.0682 µg/mL
2,B9,0.047 µg/mL
3,B10,0.0511 µg/mL
4,B11,0.0629 µg/mL
5,B12,0.0565 µg/mL
6,B13,0.0627 µg/mL

# Molecular target: T2, human GPC3-his tag protein
# Assay: SPR Biacore 8K, mAb captured, affinity ranking
# Remark: another data set of the same source
# Method: To evaluate antigen binding activity, the chimeric antibody's affinity was measured by Biacore 8K. A serial dilution of human GPC3-his tag protein was injected over captured chimeric antibody 52H5D3B8-6 #-VH+VL for 3 mins at a flow rate of 30 μl/min. The antigen was allowed to dissociate for 720 s. Among the multi detection doses, two concentrations with most close affinity to the chimeric antibody's affinity were chosen for the 16 humanized antibodies' affinity detection.
Binder,Kd,koff,kon
B8,0.721 nM,0.000514 s⁻¹,714000 M⁻¹ s⁻¹
B9,0.857 nM,0.000593 s⁻¹,692000 M⁻¹ s⁻¹
B10,0.847 nM,0.000601 s⁻¹,709000 M⁻¹ s⁻¹
B11,0.725 nM,0.000516 s⁻¹,711000 M⁻¹ s⁻¹
B12,1.01 nM,0.000646 s⁻¹,643000 M⁻¹ s⁻¹
B13,1.05 nM,0.000674 s⁻¹,642000 M⁻¹ s⁻¹
